Source: IntAct's records for PubMed 35512704

B1: Speckle-type POZ protein (Homo sapiens), O43791 (parent)
chain: MSRVPSPPPPAEMSSGPVAESWCYTQIKVVKFSYMWTINNFSFCREEMGEVIKSSTFSSGANDKLKWCLRVNPKGLDEESKDYLSLYLLLVSCPKSEVRAKFKFSILNAKGEETKAMESQRAYRFVQGKDWGFKKFIRRDFLLDEANGLLPDDKLTLFCEVSVVQDSVNISGQNTMNMVKVPECRLADELGGLWENSRFTDCCLCVAGQEFQAHKAILAARSPVFSAMFEHEMEESKKNRVEINDVEPEVFKEMMCFIYTGKAPNLDKMADDLLAAADKYALERLKVMCEDALCSNLSVENAAEILILADLHSADQLKTQAVDFINYHASDVLETSGWKSMVVSHPHLVAEAYRSLASAQCPFLGPPRKRLKQS
partner: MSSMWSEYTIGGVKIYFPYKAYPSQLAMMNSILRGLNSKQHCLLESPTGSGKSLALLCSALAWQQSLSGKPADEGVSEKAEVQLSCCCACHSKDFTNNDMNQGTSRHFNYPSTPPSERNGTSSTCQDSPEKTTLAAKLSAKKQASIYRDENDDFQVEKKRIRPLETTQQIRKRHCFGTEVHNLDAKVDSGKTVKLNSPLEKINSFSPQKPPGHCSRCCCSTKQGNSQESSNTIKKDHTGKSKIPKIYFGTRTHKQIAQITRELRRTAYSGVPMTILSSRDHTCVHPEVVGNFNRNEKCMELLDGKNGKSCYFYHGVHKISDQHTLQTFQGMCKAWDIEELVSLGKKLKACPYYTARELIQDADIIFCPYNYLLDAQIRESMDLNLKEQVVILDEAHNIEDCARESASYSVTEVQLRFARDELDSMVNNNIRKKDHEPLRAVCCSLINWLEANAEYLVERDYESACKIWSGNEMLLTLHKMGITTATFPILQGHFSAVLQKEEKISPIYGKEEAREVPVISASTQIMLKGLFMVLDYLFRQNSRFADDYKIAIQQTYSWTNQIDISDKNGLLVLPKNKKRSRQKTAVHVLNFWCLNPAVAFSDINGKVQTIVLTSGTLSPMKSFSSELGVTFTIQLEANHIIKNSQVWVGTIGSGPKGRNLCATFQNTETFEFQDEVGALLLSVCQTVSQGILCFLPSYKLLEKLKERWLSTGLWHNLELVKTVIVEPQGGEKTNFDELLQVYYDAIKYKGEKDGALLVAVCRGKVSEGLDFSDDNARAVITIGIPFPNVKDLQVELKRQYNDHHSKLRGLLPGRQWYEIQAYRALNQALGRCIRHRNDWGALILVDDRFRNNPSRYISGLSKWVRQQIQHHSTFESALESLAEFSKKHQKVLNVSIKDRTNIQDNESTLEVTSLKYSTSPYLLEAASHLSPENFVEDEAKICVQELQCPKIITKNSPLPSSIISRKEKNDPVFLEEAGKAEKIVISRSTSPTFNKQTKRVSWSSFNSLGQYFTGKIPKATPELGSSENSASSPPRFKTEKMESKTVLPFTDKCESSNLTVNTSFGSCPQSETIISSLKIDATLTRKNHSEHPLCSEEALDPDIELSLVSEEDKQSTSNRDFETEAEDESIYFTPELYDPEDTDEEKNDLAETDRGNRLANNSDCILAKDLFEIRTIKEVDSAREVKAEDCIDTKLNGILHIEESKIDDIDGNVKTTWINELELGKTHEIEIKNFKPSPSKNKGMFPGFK
B2: Speckle-type POZ protein (Homo sapiens), O43791 (parent)
chain: B1 chain
partner: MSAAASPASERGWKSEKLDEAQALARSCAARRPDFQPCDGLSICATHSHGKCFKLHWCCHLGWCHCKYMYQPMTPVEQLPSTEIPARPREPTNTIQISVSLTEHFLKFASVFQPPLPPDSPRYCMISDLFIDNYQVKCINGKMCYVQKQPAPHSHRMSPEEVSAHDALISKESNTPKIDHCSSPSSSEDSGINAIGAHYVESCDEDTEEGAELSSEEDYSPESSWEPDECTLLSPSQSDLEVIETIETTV
B3: Speckle-type POZ protein (Homo sapiens), O43791 (parent)
chain: B1 chain
partner: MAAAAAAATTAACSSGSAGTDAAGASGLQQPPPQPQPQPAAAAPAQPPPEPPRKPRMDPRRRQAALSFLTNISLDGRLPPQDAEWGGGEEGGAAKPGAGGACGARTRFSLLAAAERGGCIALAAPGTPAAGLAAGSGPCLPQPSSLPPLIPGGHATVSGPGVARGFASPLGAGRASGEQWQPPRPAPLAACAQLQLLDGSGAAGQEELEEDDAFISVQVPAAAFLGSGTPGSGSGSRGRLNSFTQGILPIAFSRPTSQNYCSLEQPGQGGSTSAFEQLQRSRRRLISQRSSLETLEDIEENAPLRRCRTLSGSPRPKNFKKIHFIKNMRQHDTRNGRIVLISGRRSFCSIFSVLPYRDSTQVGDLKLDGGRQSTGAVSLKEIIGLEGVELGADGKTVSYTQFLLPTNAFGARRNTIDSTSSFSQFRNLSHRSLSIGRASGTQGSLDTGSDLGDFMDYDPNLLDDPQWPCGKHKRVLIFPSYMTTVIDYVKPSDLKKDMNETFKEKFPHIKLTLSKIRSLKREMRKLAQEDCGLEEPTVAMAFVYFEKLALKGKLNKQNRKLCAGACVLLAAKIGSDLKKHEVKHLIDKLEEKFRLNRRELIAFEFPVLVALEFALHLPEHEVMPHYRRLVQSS

Variants of: B1
Conditions: with fancj_human BRIP1, Q9BX63

| effect of a mutation on the interaction | Variant |
| --- | --- |
| with no effect | MSRVPSPPPPAEMSSGPVAESWCYTQIKVVKFSYMWTINNFSFCREEMGEVIKSSTFSSGANDKLKWCLRVNPKGLDEESKDYLSLCLLLVSCPKSEVRAKFKFSILNAKGEETKAMESQRAYRFVQGKDWGFKKFIRRDFLLDEANGLLPDDKLTLFCEVSVVQDSVNISGQNTMNMVKVPECRLADELGGLWENSRFTDCCLCVAGQEFQAHKAILAARSPVFSAMFEHEMEESKKNRVEINDVEPEVFKEMMCFIYTGKAPNLDKMADDLLAAADKYALERLKVMCEDALCSNLSVENAAEILILADLHSADQLKTQAVDFINYHASDVLETSGWKSMVVSHPHLVAEAYRSLASAQCPFLGPPRKRLKQS [Y87C] |

Variants of: B2
Conditions: with cc070_human C3orf70, A6NLC5

| effect of a mutation on the interaction | Variant |
| --- | --- |
| with no effect | MSRVPSPPPPAEMSSGPVAESWCYTQIKVVKFSYMWTINNFSFCREEMGEVIKSSTFSSGANDKLKWCLRVNPKGLDEESKDYLSLYLLLVSCPKSEVRAKFKFSILNAKGEETKAMESQRAYRFVQGKDWGLKKFIRRDFLLDEANGLLPDDKLTLFCEVSVVQDSVNISGQNTMNMVKVPECRLADELGGLWENSRFTDCCLCVAGQEFQAHKAILAARSPVFSAMFEHEMEESKKNRVEINDVEPEVFKEMMCFIYTGKAPNLDKMADDLLAAADKYALERLKVMCEDALCSNLSVENAAEILILADLHSADQLKTQAVDFINYHASDVLETSGWKSMVVSHPHLVAEAYRSLASAQCPFLGPPRKRLKQS [F133L] |

Variants of: B2
Conditions: with cc070_human C3orf70, A6NLC5
Remark: another data set of the same source

| effect of a mutation on the interaction | Variant |
| --- | --- |
| with no effect | MSRVPSPPPPAEMSSGPVAESWCYTQIKVVKFSYMWTINNFSFCREEMGEVIKSSTFSSGANDKLKWCLRVNPKGLDEESKDYLSLYLLLVSCPKSEVRAKFKFSILNAKGEETKAMESQRAYRFVQGKDWGVKKFIRRDFLLDEANGLLPDDKLTLFCEVSVVQDSVNISGQNTMNMVKVPECRLADELGGLWENSRFTDCCLCVAGQEFQAHKAILAARSPVFSAMFEHEMEESKKNRVEINDVEPEVFKEMMCFIYTGKAPNLDKMADDLLAAADKYALERLKVMCEDALCSNLSVENAAEILILADLHSADQLKTQAVDFINYHASDVLETSGWKSMVVSHPHLVAEAYRSLASAQCPFLGPPRKRLKQS [F133V] |

Variants of: B2
Conditions: with cc070_human C3orf70, A6NLC5
Remark: another data set of the same source

| effect of a mutation on the interaction | Variant |
| --- | --- |
| with no effect | MSRVPSPPPPAEMSSGPVAESWCYTQIKVVKFSYMWTINNFSFCREEMGEVIKSSTFSSGANDKLKWCLRVNPKGLDEESKDYLSLCLLLVSCPKSEVRAKFKFSILNAKGEETKAMESQRAYRFVQGKDWGFKKFIRRDFLLDEANGLLPDDKLTLFCEVSVVQDSVNISGQNTMNMVKVPECRLADELGGLWENSRFTDCCLCVAGQEFQAHKAILAARSPVFSAMFEHEMEESKKNRVEINDVEPEVFKEMMCFIYTGKAPNLDKMADDLLAAADKYALERLKVMCEDALCSNLSVENAAEILILADLHSADQLKTQAVDFINYHASDVLETSGWKSMVVSHPHLVAEAYRSLASAQCPFLGPPRKRLKQS [Y87C] |

Variants of: B2
Conditions: with cc070_human C3orf70, A6NLC5
Remark: another data set of the same source

| effect of a mutation on the interaction | Variant |
| --- | --- |
| with no effect | MSRVPSPPPPAEMSSGPVAESWCYTQIKVVKFSYMWTINNFSFCREEMGEVIKSSTFSSGANDKLKWCLRVNPKGLDEESKDYLSLYLLLVSCPKSEVRAKCKFSILNAKGEETKAMESQRAYRFVQGKDWGFKKFIRRDFLLDEANGLLPDDKLTLFCEVSVVQDSVNISGQNTMNMVKVPECRLADELGGLWENSRFTDCCLCVAGQEFQAHKAILAARSPVFSAMFEHEMEESKKNRVEINDVEPEVFKEMMCFIYTGKAPNLDKMADDLLAAADKYALERLKVMCEDALCSNLSVENAAEILILADLHSADQLKTQAVDFINYHASDVLETSGWKSMVVSHPHLVAEAYRSLASAQCPFLGPPRKRLKQS [F102C] |

Variants of: B3
Conditions: with cabl1_human CABLES1, Q8TDN4

| effect of a mutation on the interaction | Variant |
| --- | --- |
| with no effect | MSRVPSPPPPAEMSSGPVAESWCYTQIKVVKFSYMWTINNFSFCREEMGEVIKSSTFSSGANDKLKWCLRVNPKGLDEESKDYLSLYLLLVSCPKSEVRAKCKFSILNAKGEETKAMESQRAYRFVQGKDWGFKKFIRRDFLLDEANGLLPDDKLTLFCEVSVVQDSVNISGQNTMNMVKVPECRLADELGGLWENSRFTDCCLCVAGQEFQAHKAILAARSPVFSAMFEHEMEESKKNRVEINDVEPEVFKEMMCFIYTGKAPNLDKMADDLLAAADKYALERLKVMCEDALCSNLSVENAAEILILADLHSADQLKTQAVDFINYHASDVLETSGWKSMVVSHPHLVAEAYRSLASAQCPFLGPPRKRLKQS [F102C] |

Variants of: B3
Conditions: with cabl1_human CABLES1, Q8TDN4
Remark: another data set of the same source

| effect of a mutation on the interaction | Variant |
| --- | --- |
| with no effect | MSRVPSPPPPAEMSSGPVAESWCYTQIKVVKFSYMWTINNFSFCREEMGEVIKSSTFSSGANDKLKWCLRVNPKGLDEESKDYLSLCLLLVSCPKSEVRAKFKFSILNAKGEETKAMESQRAYRFVQGKDWGFKKFIRRDFLLDEANGLLPDDKLTLFCEVSVVQDSVNISGQNTMNMVKVPECRLADELGGLWENSRFTDCCLCVAGQEFQAHKAILAARSPVFSAMFEHEMEESKKNRVEINDVEPEVFKEMMCFIYTGKAPNLDKMADDLLAAADKYALERLKVMCEDALCSNLSVENAAEILILADLHSADQLKTQAVDFINYHASDVLETSGWKSMVVSHPHLVAEAYRSLASAQCPFLGPPRKRLKQS [Y87C] |

Variants of: B3
Conditions: with cabl1_human CABLES1, Q8TDN4
Remark: another data set of the same source

| effect of a mutation on the interaction | Variant |
| --- | --- |
| with no effect | MSRVPSPPPPAEMSSGPVAESWCYTQIKVVKFSYMWTINNFSFCREEMGEVIKSSTFSSGANDKLKWCLRVNPKGLDEESKDYLSLYLLLVSCPKSEVRAKFKFSILNAKGEETKAMESQRAYRFVQGKDWGLKKFIRRDFLLDEANGLLPDDKLTLFCEVSVVQDSVNISGQNTMNMVKVPECRLADELGGLWENSRFTDCCLCVAGQEFQAHKAILAARSPVFSAMFEHEMEESKKNRVEINDVEPEVFKEMMCFIYTGKAPNLDKMADDLLAAADKYALERLKVMCEDALCSNLSVENAAEILILADLHSADQLKTQAVDFINYHASDVLETSGWKSMVVSHPHLVAEAYRSLASAQCPFLGPPRKRLKQS [F133L] |
